System: T1, RsmE-His6 (Pseudomonas putida KT2440), ORF:50140dbc
T1 sequence: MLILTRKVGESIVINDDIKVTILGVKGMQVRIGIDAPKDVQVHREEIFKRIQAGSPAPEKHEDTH
Assay: EMSA
Settings: 1x binding buffer (composition only cited), RNA 5 or 10 nM, 30 min at 30 C, with or without 100-fold unlabeled competitor RNA; 6% non-denaturing PAGE in TBE at …

## GGGUUCUAAGAUUGGAUCCACUGUUAAUCUUUACCACAUGGACGUUGCGCAGGAAGCGCAAAGGACAGAUCAAGGACGACGACGAAGGACCACCUGCCAGGAUGGCGGGGCGAUACGGAUGUCACAGGGAAACAGUCUGGAAAACCCCGCUUCGGCGGGGGGGGGUUUUUUUUGCGGCCGCUUUU [rsmY full-length RNA]
  binding: binds

Source: PMC7937890
